The text below walks through data of patent US20050100970A1 (Affibody, published 2005).

Assay [1] addresses T1, human serum albumin (human, UniProt P02768 25-609).
T1 construct: Amine-coupled to a CM5 chip, coupled to Sepharose, or loaded in solution onto the ABD columns; also called HSA
In words: BIAcore 2000, HSA immobilised on CM5 chip, 40-220 nM ABDwt. A general note: Surface plasmon resonance follows binding to a sensor surface in real time, without labels.

The target in assay [2] is T1, human serum albumin. The assay can be described thus: BIAcore 2000, HSA immobilised on CM5 chip, 200-600 nM ABDmut.
Assay [3] deals with T1, human serum albumin. In words: Biacore 2000, HSA immobilised on a CM5 chip, analyte at 200 nM, 20 µl/min.

A word on the koff: it is a measure of how fast the partners let go of each other. By kon is commonly meant the rate constant with which the complex forms. A higher kon goes with faster complex formation.

B1: wild type Albumin Binding Protein (ABD) (other)
chain: MKAIFVLNAQHDEAVDANSLAEAKVLANRELDKYGVSDYYKNLINNAKTVEGVKALIDEILAALP
notes: Expressed in E. coli from pTrpABDT1T2; also called ABDwt; unmutated protein
Take B1: in the assay with human serum albumin [1], the Ka came to 6.9e+07 M⁻¹, the koff came to 0.0013 s⁻¹ and the kon stood at 90000 M⁻¹ s⁻¹.

B2: ABDmut (Asn28Leu, Asn42Asp, Asn45Asp, Asn46Lys variant of ABD) (designed binder)
chain: MKAIFVLNAQHDEAVDANSLAEAKVLALRELDKYGVSDYYKDLIDKAKTVEGVKALIDEILAALP
notes: Expressed in E. coli from pTrpABDmutT1T2; also called ABDstab; mutated ABD
B2: in the assay with human serum albumin [2], the Ka came to 1.5e+07 M⁻¹, the koff came out at 0.0012 s⁻¹ and the kon stood at 18000 M⁻¹ s⁻¹.

B3: ABDmut22-25-26 (designed binder)
chain: MKAIFVLNAQHDEAVDANSLAAAKAAALRELDKYGVSDYYKDLIDKAKTVEGVKALIDEILAALP
notes: also called 22-25-26 A; triple mutant of ABDmut
As for B3, the binding result with human serum albumin [3] is “binds”.

B4: ABDmut54-57-58 (designed binder)
chain: MKAIFVLNAQHDEAVDANSLAEAKVLALRELDKYGVSDYYKDLIDKAKTVEGVAALAAEILAALP
notes: also called 54-57-58 A; ABDmutS4-57-58
For B4, in the assay with human serum albumin [3], the binding result is given as “binds”.
